# Data: patent US20030100069A1 (Human Genome Sciences, published 2003)
# T1: F-TR8-615 (FLAG epitope-tagged TR8, residues 33-615 of FIGS. 1A-C) (human) (UniProt Q9Y6Q6)
# T1 sequence: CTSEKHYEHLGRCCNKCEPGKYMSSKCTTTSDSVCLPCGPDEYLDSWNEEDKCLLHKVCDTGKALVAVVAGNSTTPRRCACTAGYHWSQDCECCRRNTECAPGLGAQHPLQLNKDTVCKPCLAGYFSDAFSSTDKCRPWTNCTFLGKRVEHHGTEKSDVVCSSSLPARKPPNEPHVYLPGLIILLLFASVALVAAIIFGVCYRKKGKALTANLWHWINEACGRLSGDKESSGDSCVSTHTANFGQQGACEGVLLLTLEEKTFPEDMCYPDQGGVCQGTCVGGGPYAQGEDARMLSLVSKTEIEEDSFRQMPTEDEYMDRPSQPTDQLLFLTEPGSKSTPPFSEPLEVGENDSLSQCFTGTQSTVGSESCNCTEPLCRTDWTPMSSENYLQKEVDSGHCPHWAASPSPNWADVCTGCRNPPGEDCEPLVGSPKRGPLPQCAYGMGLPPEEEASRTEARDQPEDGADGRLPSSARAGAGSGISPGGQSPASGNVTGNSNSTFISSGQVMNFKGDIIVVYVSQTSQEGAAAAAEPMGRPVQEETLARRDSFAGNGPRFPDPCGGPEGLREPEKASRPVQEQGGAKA
# T2: endogenous TRAF2 (of HeLa and 293 cells) (human, UniProt Q12933 2-501)
# T2 construct: 293 is called a human embryonic kidney cell line; HeLa is a human line; Detected by western blot with anti-TRAF2 polyclonal antibodies; also called TNF receptor-associated factor 2
# T2 sequence (looked up): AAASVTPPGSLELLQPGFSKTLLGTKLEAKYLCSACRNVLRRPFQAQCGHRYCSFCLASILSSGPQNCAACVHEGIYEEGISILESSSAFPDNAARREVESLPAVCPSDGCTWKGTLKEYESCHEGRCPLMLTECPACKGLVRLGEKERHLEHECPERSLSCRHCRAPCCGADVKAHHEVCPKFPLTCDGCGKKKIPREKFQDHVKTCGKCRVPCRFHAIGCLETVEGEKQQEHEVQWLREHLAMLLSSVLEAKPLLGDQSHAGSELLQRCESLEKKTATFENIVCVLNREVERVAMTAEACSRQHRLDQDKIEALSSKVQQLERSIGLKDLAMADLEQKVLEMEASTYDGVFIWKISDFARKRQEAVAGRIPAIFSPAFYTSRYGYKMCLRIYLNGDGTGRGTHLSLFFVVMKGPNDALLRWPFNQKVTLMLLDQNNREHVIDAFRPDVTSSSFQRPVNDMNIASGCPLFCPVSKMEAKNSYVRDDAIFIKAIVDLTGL
# Biological target: T1, F-TR8-615 (FLAG epitope-tagged TR8, residues 33-615 of FIGS. 1A-C) (human)
# Test: anti-FLAG co-immunoprecipitation of 35S-labeled TRAF from 293 lysates, PhosphorImager quantitation
# in vitro translated 35S-labeled TRAF5, sequence (O00463 whole entry): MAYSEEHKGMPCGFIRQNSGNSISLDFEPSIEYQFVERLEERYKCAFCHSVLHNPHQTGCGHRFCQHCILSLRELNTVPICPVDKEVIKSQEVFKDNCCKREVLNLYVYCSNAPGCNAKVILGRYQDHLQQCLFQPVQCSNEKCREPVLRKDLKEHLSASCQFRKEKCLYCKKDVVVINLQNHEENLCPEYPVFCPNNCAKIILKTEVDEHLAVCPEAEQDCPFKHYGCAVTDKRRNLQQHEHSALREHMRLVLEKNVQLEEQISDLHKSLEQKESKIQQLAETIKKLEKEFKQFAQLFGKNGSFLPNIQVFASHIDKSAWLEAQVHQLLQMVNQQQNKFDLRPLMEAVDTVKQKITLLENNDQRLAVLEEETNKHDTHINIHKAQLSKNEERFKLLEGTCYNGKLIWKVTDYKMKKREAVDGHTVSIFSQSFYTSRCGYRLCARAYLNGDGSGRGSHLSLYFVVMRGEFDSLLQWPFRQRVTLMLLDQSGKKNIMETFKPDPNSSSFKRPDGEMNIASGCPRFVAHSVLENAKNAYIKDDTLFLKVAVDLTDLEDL
row,Molecule,fold increase in binding relative to vector transfected cells [fold]
1,in vitro translated 35S-labeled TRAF5,11
2,in vitro translated 35S-labeled TRAF6,5
3,"in vitro translated 35S-labeled TRAF2 (protein, UniProt Q12933 2-501, looked up, species assumed, 35S-labeled) TNF receptor-associated factor 2: AAASVTPPGSLELLQPGFSKTLLGTKLEAKYLCSACRNVLRRPFQAQCGHRYCSFCLASILSSGPQNCAACVHEGIYEEGISILESSSAFPDNAARREVESLPAVCPSDGCTWKGTLKEYESCHEGRCPLMLTECPACKGLVRLGEKERHLEHECPERSLSCRHCRAPCCGADVKAHHEVCPKFPLTCDGCGKKKIPREKFQDHVKTCGKCRVPCRFHAIGCLETVEGEKQQEHEVQWLREHLAMLLSSVLEAKPLLGDQSHAGSELLQRCESLEKKTATFENIVCVLNREVERVAMTAEACSRQHRLDQDKIEALSSKVQQLERSIGLKDLAMADLEQKVLEMEASTYDGVFIWKISDFARKRQEAVAGRIPAIFSPAFYTSRYGYKMCLRIYLNGDGTGRGTHLSLFFVVMKGPNDALLRWPFNQKVTLMLLDQNNREHVIDAFRPDVTSSSFQRPVNDMNIASGCPLFCPVSKMEAKNSYVRDDAIFIKAIVDLTGL",145

# Biological target: T2, endogenous TRAF2 (of HeLa and 293 cells)
# Test: anti-FLAG co-immunoprecipitation from HeLa and 293 lysates, anti-TRAF2 western blot
# Experimental: Immunoprecipitations and JNK Kinase Assays—From transient transfected cells, lysates were prepared and immunoprecipitated using anti-FLAG-conjugated agarose or anti-JNK1 and protein A/G sepharose for 1 hr. Where indicated, ³⁵S-labeled proteins were added to the lysate prior to immunoprecipitation. Beads were collected by centrifugation and washed four times in lysis buffer followed by two washes in kinase buffer (20 mM TRIS, pH 8, 50 mM NaCl, and 1 mM DTT). For coimmunoprecipation, proteins were eluted in SDS-sample buffer, boiled, and subjected to SDS-PAGE. Analysis of JNK activity was performed using exogenously added GST-Jun(1-79) as a substrate as previously described (Haridas et al., J. Immunol. 160:3152-3162 (1998)). Quantitation of JNK activity and ³⁵S-labeled TRAF binding was analyzed using a PhosphoImager and Imagequant Software (Molecular Dynamics, Sunnyvale, Calif.).
# TRAF2, TRAF5, and TRAF6 Interact with the C-Terminus of TR8—Since most of the TNFR family members utilize TRAFs as signaling components and that TR8 contains putative TRAF binding domains, we examined the ability for TR8 to interact with various TRAFs. […] After 24-36 hr, cell lysates were prepared and epitope-tagged receptors were immunoprecipitated with anti-FLAG conjugated-agarose. Coprecipitation of endogenous TRAF2 was detected by western blotting with anti-TRAF2 polyclonal antibodies. […] Membranes were also probed with anti-FLAG to insure precipitation of epitope-tagged receptors (data not shown).
row,Molecule,binding result
1,"F-TR8-427 (FLAG-tagged TR8 C-terminal deletion lacking 188 amino acids) (receptor, not shown: small tags and cut ends, The C-terminal limit is inferred from the construct name and the stated deletion of 188 residues; also called F-TR8 deletion mutant) CTSEKHYEHLGRCCNKCEPGKYMSSKCTTTSDSVCLPCGPDEYLDSWNEEDKCLLHKVCDTGKALVAVVAGNSTTPRRCACTAGYHWSQDCECCRRNTECAPGLGAQHPLQLNKDTVCKPCLAGYFSDAFSSTDKCRPWTNCTFLGKRVEHHGTEKSDVVCSSSLPARKPPNEPHVYLPGLIILLLFASVALVAAIIFGVCYRKKGKALTANLWHWINEACGRLSGDKESSGDSCVSTHTANFGQQGACEGVLLLTLEEKTFPEDMCYPDQGGVCQGTCVGGGPYAQGEDARMLSLVSKTEIEEDSFRQMPTEDEYMDRPSQPTDQLLFLTEPGSKSTPPFSEPLEVGENDSLSQCFTGTQSTVGSESCNCTEPLCRTDWTPMSSENYLQKEVDS",no binding
2,"F-TR8-530 (FLAG-tagged TR8 C-terminal deletion lacking 85 amino acids) (receptor, not shown: small tags and cut ends, also called F-TR8 deletion mutant) CTSEKHYEHLGRCCNKCEPGKYMSSKCTTTSDSVCLPCGPDEYLDSWNEEDKCLLHKVCDTGKALVAVVAGNSTTPRRCACTAGYHWSQDCECCRRNTECAPGLGAQHPLQLNKDTVCKPCLAGYFSDAFSSTDKCRPWTNCTFLGKRVEHHGTEKSDVVCSSSLPARKPPNEPHVYLPGLIILLLFASVALVAAIIFGVCYRKKGKALTANLWHWINEACGRLSGDKESSGDSCVSTHTANFGQQGACEGVLLLTLEEKTFPEDMCYPDQGGVCQGTCVGGGPYAQGEDARMLSLVSKTEIEEDSFRQMPTEDEYMDRPSQPTDQLLFLTEPGSKSTPPFSEPLEVGENDSLSQCFTGTQSTVGSESCNCTEPLCRTDWTPMSSENYLQKEVDSGHCPHWAASPSPNWADVCTGCRNPPGEDCEPLVGSPKRGPLPQCAYGMGLPPEEEASRTEARDQPEDGADGRLPSSARAGAGSGISPGGQSPASGNVTGNSNS",no binding
3,"F-TR8-330 (FLAG-tagged TR8 C-terminal deletion lacking 285 amino acids) (receptor, not shown: small tags and cut ends, The C-terminal limit is inferred from the construct name and the stated deletion of 285 residues; also called F-TR8 deletion mutant) CTSEKHYEHLGRCCNKCEPGKYMSSKCTTTSDSVCLPCGPDEYLDSWNEEDKCLLHKVCDTGKALVAVVAGNSTTPRRCACTAGYHWSQDCECCRRNTECAPGLGAQHPLQLNKDTVCKPCLAGYFSDAFSSTDKCRPWTNCTFLGKRVEHHGTEKSDVVCSSSLPARKPPNEPHVYLPGLIILLLFASVALVAAIIFGVCYRKKGKALTANLWHWINEACGRLSGDKESSGDSCVSTHTANFGQQGACEGVLLLTLEEKTFPEDMCYPDQGGVCQGTCVGGGPYAQGEDARMLSLVS",no binding
